Results: doi:10.1101/2024.07.16.603655 (bioRxiv, 2024)
Blank lines part the entries; values can stand above or below the molecule they belong to.

Columns and labels:
[1] = molecular target: dsRBD3-6xHis (dsRNA binding domain 3 of zebrafish Prkra) (zebrafish); experiment: native gel or EMSA
[2] = molecular target: the molecule itself; experiment: native gel or EMSA

stoichiometry N [1]: 2
Molecule: dsRBD3-6xHis (dsRNA binding domain 3 of zebrafish Prkra) (domain or fragment)

B1: Prkra-6xHis (recombinant wild-type zebrafish Prkra) (natural protein, UniProt B0V3F8 1-282, looked up)
chain: MAPQRSQDKTPIQLLHEYGIKISSAPKYELIHADGDAHQPSFMFSVTIGEVTCKGRGSTKKAAKHEAAEAALKLLKRDSQIIDQRDNNGLSPEAGEASNPVGILQELAMQRVWCLPEYVVFMETGPGHMKEFTIACRLEGLEETGSGSSKKLARRAAAENMIAKLQSLSGSSEITWSPPSRVYVESLRNSTGEKVSLLKRTPLSLPNTDYIQMLLEISLELGFQVTYIDIDELTVNGQYQCLVELSTRPVTVCHGSGVTSSNAHNAAAHNALQYIKMVASKH
stoichiometry N [2]: ~2
